Source: the supplement of paper PMC9112550, “Optimization of the antimicrobial peptide Bac7 by deep mutational scanning” (BMC Biology, 2022)

Tested on: Escherichia coli TOP10
Experiment: shrunken log2 fold change of peptide-encoding DNA abundance (4.5 h post-induction vs induction); higher = less antimicrobial activity (less host growth inhibition)
Conditions: time post-induction: 4.5 h; library: site-saturation at positions 5, 18, 19, 20
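Note: peptides expressed intracellularly from a pBAD plasmid library in pooled LB shake-flask culture, induced with 0.3% L-arabinose, DNA abundance read by NGS, three biological replicates, DESeq2 with apeglm shrinkage.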

| Sequence | shrunken log2 fold change |
| --- | --- |
| RRIRSRPPRLPRPRPRPCTGPRP | -0.0404 |
| RRIRSRPPRLPRPRPRPVSLPRP | -0.122 |
| RRIRQRPPRLPRPRPRPKERPRP | -0.00138 |
| RRIRVRPPRLPRPRPRPIRVPRP | -0.473 |
| RRIRPRPPRLPRPRPRPQMDPRP | -0.395 |
| RRIRGRPPRLPRPRPRPLLNPRP | 0.76 |
| RRIRGRPPRLPRPRPRPCRWPRP | 0.611 |
| RRIRRRPPRLPRPRPRPRQNPRP | 0.419 |
| RRIRRRPPRLPRPRPRPNHHPRP | -0.25 |
| RRIRFRPPRLPRPRPRPKKKPRP | -0.00928 |
| RRIRLRPPRLPRPRPRPTPNPRP | 0.403 |
| RRIRSRPPRLPRPRPRPMPEPRP | 0.376 |
| RRIRMRPPRLPRPRPRPCYHPRP | -0.265 |
| RRIRCRPPRLPRPRPRPWEIPRP | 0.0501 |
| RRIRARPPRLPRPRPRPVYGPRP | -0.235 |
| RRIRPRPPRLPRPRPRPFDNPRP | -0.299 |
| RRIRYRPPRLPRPRPRPTEQPRP | -0.0161 |
| RRIRLRPPRLPRPRPRPHPMPRP | -0.173 |
| RRIRYRPPRLPRPRPRPTAEPRP | 0.0226 |
| RRIRPRPPRLPRPRPRPAIEPRP | -0.0623 |
| RRIRSRPPRLPRPRPRPPKKPRP | 0.282 |
| RRIRFRPPRLPRPRPRPPKYPRP | -0.0263 |
| RRIRFRPPRLPRPRPRPHIGPRP | -0.482 |
| RRIRWRPPRLPRPRPRPFSVPRP | -0.159 |
| RRIRTRPPRLPRPRPRPKFVPRP | 0.368 |

| Sequence | shrunken log2 fold change |
| --- | --- |
| RRIRHRPPRLPRPRPRPDKIPRP | -0.042 |
| RRIRQRPPRLPRPRPRPHNMPRP | -0.283 |
| RRIRARPPRLPRPRPRPTKIPRP | 0.272 |
| RRIRTRPPRLPRPRPRPFALPRP | -0.0597 |
| RRIRFRPPRLPRPRPRPMSKPRP | -0.0951 |
| RRIRFRPPRLPRPRPRPHWHPRP | -0.444 |
| RRIRWRPPRLPRPRPRPCPYPRP | -0.271 |
| RRIRYRPPRLPRPRPRPLKSPRP | -0.365 |
| RRIRCRPPRLPRPRPRPMTWPRP | -0.383 |
| RRIRARPPRLPRPRPRPGGIPRP | 0.254 |
| RRIRARPPRLPRPRPRPWPMPRP | 0.18 |
| RRIRWRPPRLPRPRPRPHCRPRP | 0.0889 |
| RRIRIRPPRLPRPRPRPEELPRP | -0.0241 |
| RRIRHRPPRLPRPRPRPFTKPRP | 0.009 |
| RRIRIRPPRLPRPRPRPFPRPRP | -0.123 |
| RRIRSRPPRLPRPRPRPYGQPRP | -0.134 |
| RRIRIRPPRLPRPRPRPPNKPRP | -0.36 |
| RRIRFRPPRLPRPRPRPNVLPRP | -0.323 |
| RRIRPRPPRLPRPRPRPRMSPRP | 0.232 |
| RRIRERPPRLPRPRPRPERPPRP | -0.0522 |
| RRIRSRPPRLPRPRPRPVIAPRP | 0.053 |
| RRIRTRPPRLPRPRPRPNFKPRP | -0.131 |
| RRIRHRPPRLPRPRPRPPLQPRP | -0.127 |
| RRIRYRPPRLPRPRPRPGQWPRP | 0.136 |
| RRIRCRPPRLPRPRPRPCGHPRP | -0.101 |

| Sequence | shrunken log2 fold change |
| --- | --- |
| RRIRNRPPRLPRPRPRPDWFPRP | -0.0803 |
| RRIRWRPPRLPRPRPRPCGMPRP | 0.259 |
| RRIRSRPPRLPRPRPRPPITPRP | -0.177 |
| RRIRVRPPRLPRPRPRPMLGPRP | -0.0049 |
| RRIRFRPPRLPRPRPRPDFHPRP | -0.287 |
| RRIRMRPPRLPRPRPRPAPMPRP | 0.953 |
| RRIRRRPPRLPRPRPRPTDDPRP | 0.741 |
| RRIRGRPPRLPRPRPRPYPMPRP | -0.142 |
| RRIRGRPPRLPRPRPRPYVCPRP | -0.00206 |
| RRIRQRPPRLPRPRPRPWQPPRP | -0.00999 |
| RRIRTRPPRLPRPRPRPFRVPRP | -0.108 |
| RRIRYRPPRLPRPRPRPVSPPRP | -0.449 |
| RRIRSRPPRLPRPRPRPATMPRP | 0.00669 |
| RRIRQRPPRLPRPRPRPDVPPRP | 0.0169 |
| RRIRDRPPRLPRPRPRPDQLPRP | 0.0963 |
| RRIRARPPRLPRPRPRPAELPRP | 0.426 |
| RRIRWRPPRLPRPRPRPEHKPRP | 0.278 |
| RRIRQRPPRLPRPRPRPSVIPRP | -0.656 |
| RRIRMRPPRLPRPRPRPLKHPRP | -0.0893 |
| RRIRWRPPRLPRPRPRPLHRPRP | 0.0218 |
| RRIRFRPPRLPRPRPRPNSVPRP | -0.0912 |
| RRIRNRPPRLPRPRPRPSWAPRP | -0.249 |
| RRIRARPPRLPRPRPRPADTPRP | 0.0859 |
| RRIRCRPPRLPRPRPRPQSEPRP | -0.398 |
| RRIRSRPPRLPRPRPRPWCFPRP | -0.715 |

| Sequence | shrunken log2 fold change |
| --- | --- |
| RRIRNRPPRLPRPRPRPIRPPRP | -0.00213 |
| RRIRERPPRLPRPRPRPMTNPRP | -0.112 |
| RRIRERPPRLPRPRPRPNTDPRP | -0.554 |
| RRIRDRPPRLPRPRPRPWIFPRP | 0.148 |
| RRIRDRPPRLPRPRPRPQPLPRP | 0.194 |
| RRIRQRPPRLPRPRPRPLLQPRP | 0.212 |
| RRIRYRPPRLPRPRPRPQILPRP | -0.0395 |
| RRIRQRPPRLPRPRPRPEANPRP | 0.0119 |
| RRIRRRPPRLPRPRPRPMNLPRP | 0.0545 |
| RRIRTRPPRLPRPRPRPMVCPRP | 0.0039 |
| RRIRWRPPRLPRPRPRPLQVPRP | -0.125 |
| RRIRTRPPRLPRPRPRPCDPPRP | -0.072 |
| RRIRQRPPRLPRPRPRPAYAPRP | -0.189 |
| RRIRWRPPRLPRPRPRPMVCPRP | 0.199 |
| RRIRSRPPRLPRPRPRPIGLPRP | 0.074 |
| RRIRWRPPRLPRPRPRPPDDPRP | 0.847 |
| RRIRWRPPRLPRPRPRPRQAPRP | 0.475 |
| RRIRPRPPRLPRPRPRPPRIPRP | 0.233 |
| RRIRIRPPRLPRPRPRPICVPRP | -0.181 |
| RRIRIRPPRLPRPRPRPKDYPRP | -0.603 |
| RRIRRRPPRLPRPRPRPLEKPRP | 0.477 |
| RRIRCRPPRLPRPRPRPWKRPRP | -0.0584 |
| RRIRMRPPRLPRPRPRPAEDPRP | 1.93 |
| RRIRHRPPRLPRPRPRPQYRPRP | -0.0967 |
| RRIRKRPPRLPRPRPRPEYKPRP | 0.0908 |

| Sequence | shrunken log2 fold change |
| --- | --- |
| RRIRWRPPRLPRPRPRPKQWPRP | 0.155 |
| RRIRLRPPRLPRPRPRPDTDPRP | 0.0475 |
| RRIRVRPPRLPRPRPRPAHWPRP | 0.313 |
| RRIRLRPPRLPRPRPRPHHEPRP | 0.0418 |
| RRIRKRPPRLPRPRPRPSPMPRP | 0.132 |
| RRIRIRPPRLPRPRPRPTGKPRP | -0.129 |
| RRIRYRPPRLPRPRPRPGFLPRP | -0.454 |
| RRIRQRPPRLPRPRPRPCKCPRP | -0.000687 |
| RRIRWRPPRLPRPRPRPIELPRP | -0.0796 |
| RRIRMRPPRLPRPRPRPWADPRP | -0.108 |
| RRIRDRPPRLPRPRPRPVRQPRP | 0.000541 |
| RRIRMRPPRLPRPRPRPWCPPRP | -0.101 |
| RRIRHRPPRLPRPRPRPSWVPRP | -0.0882 |
| RRIRRRPPRLPRPRPRPKEMPRP | 0.0252 |
| RRIRPRPPRLPRPRPRPWTQPRP | -0.0236 |
| RRIRKRPPRLPRPRPRPIWRPRP | 0.132 |
| RRIRHRPPRLPRPRPRPQWNPRP | -0.281 |
| RRIRHRPPRLPRPRPRPWGVPRP | -0.141 |
| RRIRLRPPRLPRPRPRPEMNPRP | 0.176 |
| RRIRFRPPRLPRPRPRPNQHPRP | -0.275 |
| RRIRIRPPRLPRPRPRPMQVPRP | 0.00763 |
| RRIRARPPRLPRPRPRPPSMPRP | 0.425 |
| RRIRCRPPRLPRPRPRPQITPRP | -0.639 |
| RRIRDRPPRLPRPRPRPCIAPRP | 0.0755 |
| RRIRERPPRLPRPRPRPVWRPRP | 0.202 |

| Sequence | shrunken log2 fold change |
| --- | --- |
| RRIRYRPPRLPRPRPRPSMTPRP | -0.817 |
| RRIRMRPPRLPRPRPRPDDRPRP | -0.012 |
| RRIRDRPPRLPRPRPRPAVHPRP | 0.16 |
| RRIRYRPPRLPRPRPRPGWVPRP | 0.0444 |
| RRIRERPPRLPRPRPRPWLNPRP | -0.00136 |
| RRIRNRPPRLPRPRPRPANKPRP | 0.0716 |
| RRIRHRPPRLPRPRPRPDGPPRP | -0.0182 |
| RRIRFRPPRLPRPRPRPTHDPRP | 0.241 |
| RRIRDRPPRLPRPRPRPLPDPRP | 0.701 |
| RRIRARPPRLPRPRPRPMREPRP | 0.844 |
| RRIRQRPPRLPRPRPRPYWPPRP | -0.11 |
| RRIRQRPPRLPRPRPRPKTEPRP | 0.104 |
| RRIRTRPPRLPRPRPRPMVHPRP | -0.00211 |
| RRIRPRPPRLPRPRPRPMSGPRP | 0.115 |
| RRIRVRPPRLPRPRPRPGGGPRP | 0.695 |
| RRIRHRPPRLPRPRPRPHSWPRP | -0.0723 |
| RRIRSRPPRLPRPRPRPEEKPRP | 0.206 |
| RRIRNRPPRLPRPRPRPQRKPRP | 0.103 |
| RRIRMRPPRLPRPRPRPMWWPRP | -0.00447 |
| RRIRPRPPRLPRPRPRPIKSPRP | -0.0993 |
| RRIRGRPPRLPRPRPRPMPKPRP | 0.884 |
| RRIRERPPRLPRPRPRPLALPRP | -0.265 |
| RRIRKRPPRLPRPRPRPPAHPRP | 0.808 |
| RRIRSRPPRLPRPRPRPLFLPRP | -0.00337 |
| RRIRDRPPRLPRPRPRPMIIPRP | 0.248 |
